B1: SARS-CoV-2 variant 1-31 (antibody, V domains shown)
VH: EVQLLESGGGLVQPGGSLRLSCAASGFTFSSYAMNWVRQAPGKGLEWVSAISGSGGSTFYADSVKGRFTISRDNSKNTLYLQMNSLRAEDTAVYYCTRPPYGDYGDYWGQGTLVTVSS
VL: QSALTQPASVSGSPGQSITISCTGTSSDVGKYNLVSWYQQHPGKAPKLMIYEGSQRPSGVSNRFSGSKSGNTASLTISGLQAEDEADYYCCSYAGSRTPVVFGGGTKLTVL
B2: SARS-CoV-2 variant 1-4 (antibody, V domains shown)
VH: EVQLLESGGGLVQPGGSLRLSCAASGFTFSSQAMSWVRQAPGKGLEWVSAISGSGGGTYYADSVKGRFTISRDNSKNTLYLQMNSLRAEDTAVYYCAKDRRFGEFDPWGQGTLVTVSS
VL: B1 VL with K31T, R97S, T98S, P99F
B3: SARS-CoV-2 variant 1-5 (antibody, V domains shown)
VH: B2 VH
VL: B1 VL with D28G, K31S, G53A, Q55K, R97Y, P99F, V100A
B4: SARS-CoV-2 variant 1-3 (antibody, V domains shown)
VH: B2 VH
VL: B1 VL with T25I, K31S, S54T, Q55K, R97S, T98S, P99F
B5: SARS-CoV-2 variant 1-28 (antibody, V domains shown)
VH: EVQLLESGGGLVQPGGSLRLSCAASGFTFSSYGMSWVRQAPGKGLEWVSAISGSGGGTYYADSVKGRFTISRDNSKNTLYLQMNSLRAEDTAVYYCASSSSWQFDYWGQGTLVTVSS
VL: B1 VL with D28G, K31S, R97S, P99H, V100Y
B6: SARS-CoV-2 variant 1-30 (antibody, V domains shown)
VH: B1 VH with N35T
VL: B1 VL with S27R, K31S, S54T, Q55K
B7: SARS-CoV-2 variant 1-32 (antibody, V domains shown)
VH: B1 VH with N35Y
VL: QSALTQPASVSGSPGQSITISCTGTSSDVGGYNLVSWYQQHPGKAPKLMIYEGNKRPSGVSNRFSGSKSGNTASLTISGLQAEDEADYYCCSYAGSSTFPVVFGGGTKLTVL

Residue numbers refer to the chain shown, from its start.

The target of this assay is COVID S1 RBD Fc fusion (Antigen 1) (SARS-CoV-2), P0DTC2. Kind of assay: phage ELISA. The following applies: remark: other sources report otherwise.
B1 yielded a specificity ELISA, fold over background (fold over background) of 1.3 and a specificity ELISA, percent binding relative to Acro S1 of 4.3%.

For B2, the specificity ELISA, fold over background (fold over background) was 1.4 and the specificity ELISA, percent binding relative to Acro S1 was found to be 138%.

Take B3: the specificity ELISA, fold over background (fold over background) was 1.6 and the specificity ELISA, percent binding relative to Acro S1 stood at 108%.

On to B4, for which the specificity ELISA, fold over background (fold over background) worked out at 1.8 and the specificity ELISA, percent binding relative to Acro S1 came to 109%.

The molecule B5 had a specificity ELISA, fold over background (fold over background) of 1.1 and a specificity ELISA, percent binding relative to Acro S1 of 113%.

B6 yielded a specificity ELISA, fold over background (fold over background) of 1.7 and a specificity ELISA, percent binding relative to Acro S1 of 9.8%.

Molecule B7 gave a specificity ELISA, fold over background (fold over background) of 1.5 and a specificity ELISA, percent binding relative to Acro S1 of 13.1%.
